The record followed here is article PMC12412624, “Engineered Cas12j‐8 is a Versatile Platform for Multiplexed Genome Modulation in Mammalian Cells”.

Residue numbers refer to the chain shown, from its start.

Data set [1] relates to T1, dCas12j-8 E258R+D313R+D495R E258R;D313R;D495R;D369A;E567A;D658A (bacteriophage (metagenome)).
T1 sequence: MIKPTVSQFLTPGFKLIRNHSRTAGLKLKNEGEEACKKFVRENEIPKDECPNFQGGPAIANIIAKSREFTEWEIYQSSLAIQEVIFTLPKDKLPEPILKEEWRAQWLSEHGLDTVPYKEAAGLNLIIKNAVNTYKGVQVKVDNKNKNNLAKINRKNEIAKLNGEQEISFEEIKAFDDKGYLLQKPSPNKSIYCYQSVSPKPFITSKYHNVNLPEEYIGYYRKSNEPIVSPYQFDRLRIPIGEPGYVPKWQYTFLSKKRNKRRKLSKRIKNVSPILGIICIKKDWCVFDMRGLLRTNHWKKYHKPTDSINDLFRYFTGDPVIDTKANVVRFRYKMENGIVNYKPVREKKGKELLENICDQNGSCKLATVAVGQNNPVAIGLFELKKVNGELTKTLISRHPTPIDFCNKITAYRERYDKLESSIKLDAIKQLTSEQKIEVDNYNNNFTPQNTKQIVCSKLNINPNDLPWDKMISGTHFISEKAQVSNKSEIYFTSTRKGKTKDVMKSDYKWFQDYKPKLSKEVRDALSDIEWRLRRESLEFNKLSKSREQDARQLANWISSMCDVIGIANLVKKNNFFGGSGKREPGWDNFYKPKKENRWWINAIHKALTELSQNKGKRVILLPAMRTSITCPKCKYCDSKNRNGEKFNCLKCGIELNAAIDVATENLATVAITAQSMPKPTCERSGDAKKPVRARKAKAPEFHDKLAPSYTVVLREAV
As to conditions: HEK293T cells; panel 1e (compare within a panel only); scale: mean GFP / mean GFP of wild type, printed, no background subtraction.

Data set [2] concerns T2, dCas12j-8 E258R+D142R E258R;D142R;D369A;E567A;D658A (bacteriophage (metagenome)).
T2 sequence: T1 sequence with D142R, R313D, R495D
As to conditions: HEK293T cells; panel 1d (compare within a panel only); scale: mean GFP / mean GFP of wild type, printed, no background subtraction.

In data set [3] the test system is T3, dCas12j-8 E101R E101R;D369A;E567A;D658A (bacteriophage (metagenome)).
T3 sequence: T1 sequence with E101R, R258E, R313D, R495D
As to conditions: HEK293T cells; panel 1c (compare within a panel only); scale: mean GFP / mean GFP of wild type, printed, no background subtraction.

With “CUUUCAAGACUAAUAGAUUGCUCCUUACGAGGAGACACUCCCUAUCAGUGAUAGAG / TTNACTCCCTATCAGTGATAGAG / CTCTATCACTGATAGGGAGTNAA [TetO]”, the binding signal in data set [1] is 4.66; in data set [2], 1.87; in data set [3] it was 0.711.
